Experiments:
Format in all cases: biochemical
[1] = Directed evolution of UGTSL2, Rebaudioside A to Rebaudioside D, round 1 (Example 45)
Method: Lysis was performed by addition of Bugbuster® Master mix (Novagen®) to the thawed cells and the lysate was recovered by centrifugation. […]
The reaction was allowed to run at 30° C. and samples were taken after 2, 4, 6 and 22 h. to determine the initial rate by HPLC (CAD detection) using the analytical method that was described above for the transformation of Rebaudioside A to Rebaudioside D. In parallel the experiments were performed with baseline clone, UGTSL2. The initial rate for this baseline clone was defined as 100%. As an indication of the specificity of the clones, Rebaudioside M2 content was determined at 100% UDP-Glucose conversion and Rebaudioside D2 content was determined at 50% UDP-Glucose conversion. Wherein UDP glucose conversion is defined as: ([Reb D]/[Reb A]0)+([Reb D2]/[Reb A]0)+2*([Reb M2]/[Reb A]0).
The normalized initial rate, Rebaudioside M2 content at 100% UDP-glucose conversion and Rebaudioside D2 content at 50% UDP-glucose conversion are depicted in the following table

[2] = Activity for Rebaudioside A to Rebaudioside D conversion with UGTSL2, UGTLB (Examples 30, 32); details: 23 h., 60 μL lysate, based on initial concentration of Rebaudioside A
Method: Activity tests were performed at 3 mL scale with 60 μL of lysate for the transformation of Rebaudioside A using 0.5 mM of substrate, 2.5 mM of UDP-Glucose and 3 mM MgCl2 in 50 mM Sodium Phosphate buffer at pH 7.2. Samples were taken and analyzed by HPLC. The HPLC assay was performed as described in EXAMPLE 20.
Activity tests were performed at 3 mL scale with 600 μL of lysate for the transformation of Rebaudioside A using 0.5 mM of substrate, 2.5 mM of UDP-Glucose and 3 mM MgCl2 in 50 mM Sodium Phosphate buffer at pH 7.2. Samples were taken and analyzed by HPLC. The corresponding chromatogram after 23 h. of reaction is depicted in FIG. 63c.

[3] = Stevioside conversion products with UGTSL, UGTSL2, UGTLB by LCMS (Example 33); details: reaction time UGTSL2 2 hrs, UGTLB 2 hrs, UGTSL 22 hrs
Method: (§1) Conversion of stevioside with UGTSL and UGTSL2 was conducted in similar manner to Example 28, and the conversion of rubusoside with UGTSL and UGTSL2 was conducted similarly to Example 29. Conversions of rubusoside and stevioside with UGTLB was conducted similarly to Example 32.
(§2) The reaction mixtures were analyzed by LCMS to determine all reaction products.

[4] = Directed evolution of UGTSL2 round 3, initial rate for Rebaudioside A conversion (Example 53); details: UGTSL2 round 3 clone lysates, 0.5 mM Rebaudioside A, 30° C., pH 7.2; baseline clone UGTSL2 defined as 100%
Method: (§3) In order to measure the activity of the variants for the transformation of Rebaudioside A to Rebaudioside D, 100 μL of fresh lysate was added to a solution of Rebaudioside A (final concentration 0.5 mM), MgCl2 (final concentration 3 mM) and UDP-Glucose (final concentration 2.5 mM) in 50 mM phosphate buffer pH 7.2. The reaction was allowed to run at 30° C. and samples were taken after 2, 4, 6 and 22 h. to determine the initial rates after HPLC analysis (CAD detection) using the analytical method that was described above for the transformation of Rebaudioside A to Rebaudioside D.
(§4) Apart from the new variants for this round, both experiments were also performed with baseline clone, UGTSL2. The initial rates for the conversion of Rebaudioside A or Rebaudioside D for this baseline clone were defined as 100%.
(§5) Activity of each clone was defined as normalized activity compared to baseline clone UGTSL2 whereas specificity of each clone was expressed as the ratio between the initial rates for the conversion of Rebaudioside A and Rebaudioside D.

[5] = Activity for Stevioside to Rebaudioside E conversion with UGTSL, UGTSL2, UGTLB (Examples 28, 32); details: reaction time UGTSL 22 h., UGTSL2 2 h., 600 μL lysate, based on initial concentration of Stevioside
Method: Activity tests were performed at 3 mL scale with 600 μL of lysate for the transformation of Stevioside using 0.5 mM of substrate, 2.5 mM of UDP-Glucose and 3 mM MgCl2 in 50 mM Sodium Phosphate buffer at pH 7.2. Samples were taken and analyzed by HPLC. HPLC Analysis. The HPLC assay was performed as described in EXAMPLE 20.
Activity tests were performed at 3 mL scale with 600 μL of lysate for the transformation of Stevioside using 0.5 mM of substrate, 2.5 mM of UDP-Glucose and 3 mM MgCl2 in 50 mM Sodium Phosphate buffer at pH 7.2. Samples were taken and analyzed by HPLC. The corresponding chromatograms are depicted in FIG. 63a.

[6] = Directed evolution of UGTSL2 round 2, initial rate for Rebaudioside D conversion (Example 48); details: UGTSL2 round 2 clones; specificity
Method: The reaction was allowed to run at 30° C. and samples were taken after 2, 4, 6 and 22 h. to determine the initial rates for Rebaudioside D conversion after HPLC analysis (CAD detection).
(§6) Apart from the new variants, both experiments were also performed with baseline clone, UGTSL2. The initial rates for the conversion of Rebaudioside A or Rebaudioside D for this baseline clone were defined as 100%.
as §5

[7] = Rubusoside conversion products with UGTSL, UGTSL2, UGTLB by LCMS (Example 33); details: reaction time UGTSL2 2 hrs, UGTLB 5 hrs, UGTSL 45 hrs
Method: as §1, §2

[8] = Activity for Rubusoside to Rebaudioside E conversion with UGTSL, UGTSL2, UGTLB (Examples 29, 32); details: reaction time UGTSL 45 h., UGTSL2 2 h., 600 μL lysate, based on initial concentration of Rubusoside
Method: Activity tests were performed at 3 mL scale with 600 μL of lysate for the transformation of Rubusoside using 0.5 mM of substrate, 2.5 mM of UDP-Glucose and 3 mM MgCl2 in 50 mM Sodium Phosphate buffer at pH 7.2. Samples were taken and analyzed by HPLC. The HPLC assay was performed as described in EXAMPLE 20.
Activity tests were performed at 3 mL scale with 600 μL of lysate for the transformation of Rubusoside using 0.5 mM of substrate, 2.5 mM of UDP-Glucose and 3 mM MgCl2 in 50 mM Sodium Phosphate buffer at pH 7.2. Samples were taken and analyzed by HPLC. The corresponding chromatograms are depicted in FIG. 63b.

[9] = Directed evolution of UGTSL2 round 2, initial rate for Rebaudioside A conversion (Example 48); details: UGTSL2 round 2 clone lysates, 0.5 mM Rebaudioside A, 30° C., pH 7.2; baseline clone UGTSL2 defined as 100%
Method: as §3, §6, §5

[10] = Directed evolution of UGTSL2 round 3, initial rate for Rebaudioside D conversion (Example 53); details: UGTSL2 round 3 clones; specificity
Method: In parallel 100 μL of fresh lysate was added to a solution of Rebaudioside D (final concentration 0.5 mM), MgCl2 (final concentration 3 mM) and UDP-Glucose (final concentration 2.5 mM) in 50 mM phosphate buffer pH 7.2. The reaction was allowed to run at 30° C. and samples were taken after 2, 4, 6 and 22 h. to determine the initial rates for Rebaudioside D conversion after HPLC analysis (CAD detection).
as §4, §5

[11] = UGTSL2 round 1 clones, indication of specificity
[12] = 0.5 mM substrate, 2.5 mM UDP-Glucose, pH 7.2

B1: UGTSL2: UDP-glucosyltransferase, Solanum lycopersicum, SEQ ID NO:9 (protein, listed as Solanum lycopersicum)
chain: MATNLRVLMFPWLAYGHISPFLNIAKQLADRGFLIYLCSTRINLESIIKKIPEKYADSIHLIELQLPELPELPPHYHTTNGLPPHLNPTLHKALKMSKPNFSRILQNLKPDLLIYDVLQPWAEHVANEQNIPAGKLLTSCAAVFSYFFSFRKNPGVEFPFPAIHLPEVEKVKIREILAKEPEEGGRLDEGNKQMMLMCTSRTIEAKYIDYCTELCNWKVVPVGPPFQDLITNDADNKELIDWLGTKHENSTVFVSFGSEYFLSKEDMEEVAFALELSNVNFIWVARFPKGEERNLEDALPKGFLERIGERGRVLDKFAPQPRILNHPSTGGFISHCGWNSAMESIDFGVPIIAMPIHNDQPINAKLMVELGVAVEIVRDDDGKIHRGEIAETLKSVVTGETGEILRAKVREISKNLKSIRDEEMDAVAEELIQLCRNSNKSK
For B1, the “Normalized initial rate (0-4 h)” value ([1]; UGTSL2 round 1 clone lysates, 30° C., pH 7.2, HPLC (CAD), baseline clone UGTSL2 defined as 100%) was 100%, the “Reb D2 content at 50% UDP-Glc conversion” value [1, 11] was 12.5% and the “Reb M2 content at 100% UDP-Glc conversion” value [1, 11] was 100%. The “Rebaudioside D formation” value ([2]; 0.5 mM Rebaudioside A) was 75%, the “Rebaudioside A conv. (reaction time)” value [2, 12] was 78% (23 h.) and the “LC-MS, peak area ratio (%): Reb D” value [3] was 1.70%. The “LC-MS, peak area ratio (%): Reb E” value [3] was 42.56%, the “LC-MS, peak area ratio (%): Stev” value [3] was 20.01% and the “LC-MS, peak area ratio (%): Unknown peak #1 (MW966) RT = 22.60 min” value [3] was 4.48%. For the same molecule, the “LC-MS, peak area ratio (%): Unknown peak #2 (MW966) RT = 26.50 min” value [3] was 5.56%, the “LC-MS, peak area ratio (%): Unknown peak #3 (MW966) RT = 29.50 min” value [3] was 25.70% and the “Normalized initial rate for conversion of Rebaudioside A” value [4] was 100%. The “Rebaudioside E formation” value ([5]; 0.5 mM Stevioside) was 50%, the “Stevioside conv. (reaction time)” value [5, 12] was 77% (2 h.) and the “Ratio between initial rates for the conversion of Rebaudioside A and Rebaudioside D” value [6] was 1.67. The “LC-MS, peak area ratio (%): REb E” value [7] was 52.88%, the “LC-MS, peak area ratio (%): Reb D” value [7] was 6.73% and the “LC-MS, peak area ratio (%): Rub” value [7] was 3.54%. For the same molecule, the “LC-MS, peak area ratio (%): Stev” value [7] was 2.12%, the “LC-MS, peak area ratio (%): Unknown peak #1 (MW804) RT 30.70 min” value [7] was 12.02% and the “LC-MS, peak area ratio (%): Unknown peak #2 (MW804) RT 49.50 min” value [7] was 9.94%. For the same molecule, the “LC-MS, peak area ratio (%): Unknown peak #3 (MW804) RT 50.40 min” value [7] was 12.77%, the “Rebaudioside E formation” value ([8]; 0.5 mM Rubusoside) was 55% and the “Rubusoside conv. (reaction time)” value [8, 12] was 80% (2 h.). For the same molecule, the “Normalized initial rate for conversion of Rebaudioside A” value [9] was 100% and the “Ratio between initial rates for the conversion of Rebaudioside A and Rebaudioside D” value [10] was 1.67.

From patent publication US11653679B2, “High-purity steviol glycosides” (PureCircle Sdn Bhd, priority 2014, dated 2023)
